Source: the supplement of paper PMC9170038

Tested on: MS2 coat protein
Assay: apparent KD of MS2 coat protein; designed switch direction (-1 OFF switch, 1 ON switch): -1; higher = weaker reporter binding
Summary of the method: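 Designed RNA switches sharing common flanks were transcribed on Illumina chips by stalled E. coli RNA polymerase. They were titrated with SNAP-549-labelled MS2 coat protein, from 0.7 or 1.5 nM doubling to 3 µM, in Tris-HCl pH 7.5 buffer with KCl, MgCl2, BSA, DTT, tRNA and Tween-20. Titrations ran without input, with 200 uM small-molecule ligand, or with an oligonucleotide input. The apparent KD of each design is the median over its clusters, after curve-fitting of normalised cluster fluorescence.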

[1] = input ligand: microRNA oligo, concentration not stated
[2] = Eterna round: R95, input ligand: microRNA oligo, concentration not stated
[3] = Eterna round: R95, input ligand: FMN 200 uM
[4] = Eterna round: R95, input ligand: none

Row | Sequence | apparent KD of MS2 coat protein (input ligand: FMN 200 uM) [nM] | apparent KD of MS2 coat protein (input ligand: none) [nM] | apparent KD of MS2 coat protein [2] [nM] | further results
1 | UUUGGUGUAGGAUAUACAUGAGGAUCACCCAUGUGCUCCUGCGAGUUCGAAUCCAAAGGUAGAAGGGCGCUAAU [Eternabot (L2) Solution 83] (Eterna round: R97, puzzle: Exclusion 3) | 23.3 | 21.2 | – | –
2 | UUUGUCUGUGUGAGGAUAUACUUGUUUGGGUUUUUGUAGAAGGCACAUGAGGAUCACCCAUGUAUUUUGUUGUG [JR_BME4_Sub017] (Eterna round: R96, puzzle: Brourd's mod of Exclusion 4) | 86.5 | 55.9 | – | apparent KD of MS2 coat protein [1]: 47.7 nM
3 | UUUGUCUGUGUGAGGAUAUACUUGUUUGGGUUUUUGUAGAAGGCACAUGAGGAUCACCCAUGUAUUUUGUUGUG [JR_BME4_Sub017] (puzzle: Brourd's mod of Exclusion 4) | – | – | 49.7 | –
4 | UUUGUGUCAGGAUAUGAGUAGUAGAACAAUAGUACUACUACUCAGAAGGGACAUGAGGAUCACCCAUGUUCCUC [Fiskers Ex 4 Super stable 44 mod 21] (puzzle: Exclusion 4) | – | – | 19 | –
5 | UUUGUUGUUGUGAGGAUAUCGUAGUUAUUUUGAAACGAGAAGGCACAUGAGGAUCACCCAUGUUUGUUGAUGGU [JR_BMOE4_Sub062] (puzzle: Brourd's mod of Exclusion 4) | – | – | 32.4 | –
6 | UUUGUUUAUGUAGGAUAUGCCUGGCGUGCCUUUGCAGAAGGACAUGAGGAUCACCCAUGUAACAUGAGGCUCACCCAUGUCGCG [salish99_ExNG1_r04_112] (Eterna round: R96, puzzle: Exclusion NG 1) | 285 | 277 | – | apparent KD of MS2 coat protein [1]: 152 nM
7 | UUUUAACAUGAGGAUCACCCAUGUGAGGAUAUCGAAAUUUAUAUUAAUAUUAAUUAUUCGAGAAGGCACAUUUU [JMF 29] (puzzle: Exclusion 1) | – | – | 114 | –
8 | UUUUAACAUGAGGAUCACCCAUGUGAGGAUAUCGAAAUUUAUAUUAAUAUUAUUAAUACGAGAAGGCACAUUUU [JMF 38] (puzzle: Exclusion 1) | – | – | 36.2 | –
9 | UUUUAACAUGAGGAUCACCCAUGUGAGGAUAUCGAAAUUUAUAUUAAUAUUUAUAAUUCGAGAAGGCACAUUUU [JMF 53] (puzzle: Exclusion 1) | – | – | 155 | –
10 | UUUUAACAUGAGGAUCACCCAUGUGAGGAUAUCGAAAUUUAUAUUAAUAUUUAUAUAUCGAGAAGGCACAUUUU [JMF 56] (puzzle: Exclusion 1) | – | – | 117 | –
11 | UUUUAACAUGAGGAUCACCCAUGUGAGGAUAUCGAAAUUUAUAUUUAUAUUAAUUUAACGAGAAGGCACAUUUU [JMF 87] (puzzle: Exclusion 1) | – | – | 84.4 | –
12 | UUUUAAUAUGAAGGAUAUACUUAACAUGAGGAUCACCCAUGUGGUGUUGUGAGUGAGUGAGUUUAGUAGAAGGUCAAUGAUUUU [JMF's solution 69] (Eterna round: R96, puzzle: Exclusion NG 2) | 638 | 252 | – | apparent KD of MS2 coat protein [1]: 381 nM
13 | UUUUACAGGCUUAGAUCCUACAUGAGGAUCACCCAUGUGGAGGCGUGUCGUGAGACAUGCCUCUAAGCUCGUCUUGU [JL TOV1 3.74] (Eterna round: R97, puzzle: Sensor, turn-off variant 1) | 86.2 | 103 | – | –
14 | UUUUACAGGCUUAGAUCCUACAUGAGGAUCACCCAUGUGGUCCGGUGACGUGAGUCACCGGACUAAGCUCGUCUUGU [JL TOV1 3.72] (Eterna round: R97, puzzle: Sensor, turn-off variant 1) | 156 | 143 | – | –
15 | UUUUACAUAGGAUAUAGUUUCUUUUACAUGAGGAUCACCCAUGUCUCUCCUCUCUCUCUUCUAGAAGGAUGUUUCU [JR_E5_Sub012] (puzzle: Exclusion 5) | – | – | 86.1 | –
16 | UUUUACAUAGGAUAUAGUUUGUUGUACAUGAGGAUCACCCAUGUUGUUGGUUGUGCUGUUCUAGAAGGAUGUUUCU [JR_E5_Sub014] (puzzle: Exclusion 5) | – | – | 37.3 | –
17 | UUUUACAUGCUGAGAUCCUACAUGAGGAUCACCCAUGUGGUCCGGUGACGUGAGUCACCGGACUUAGCUCGUCUUGU [salish99_S_TOV1_R5_099] (Eterna round: R97, puzzle: Sensor, turn-off variant 1) | 186 | 304 | – | –
18 | UUUUACUUAGGAUAUACAUUUUUUUAUUUAUUUAUAAUAUUACAUGAGGAUCACCCAUGUAGAAGGGAGAUUUU [My Design] (Eterna round: R96, puzzle: Exclusion 2) | 76.9 | 72.3 | – | apparent KD of MS2 coat protein [1]: 64.3 nM
19 | UUUUACUUAGGAUAUACAUUUUUUUAUUUAUUUAUAAUAUUACAUGAGGAUCACCCAUGUAGAAGGGAGAUUUU [My Design] (puzzle: Exclusion 2) | – | – | 78.1 | –

Row | Sequence | apparent KD of MS2 coat protein (input ligand: FMN 200 uM) [nM] | apparent KD of MS2 coat protein (input ligand: none) [nM] | apparent KD of MS2 coat protein [2] [nM] | further results
20 | UUUUAGAGAGGAUAUAUAAAGUGAAACAUGAGGAUCACCCAUGUAAUUUUAUGGAUGUAAAUAGAAGGCUCAUUUA [JL-ex5-3.01] (puzzle: Exclusion 5) | – | – | 34.3 | –
21 | UUUUAGCAAGCGAGUAUUAACAUGAGGAUCACCCAUGUGCAUCCAGUAUUACUUUUAGAUCUUGCUCGUCUUAUAUA [JR_STOV1_v2_Sub083] (Eterna round: R97, puzzle: Sensor, turn-off variant 1) | 339 | 381 | – | –
22 | UUUUAGGCAGGAUAUACAUGAGGAUCACCCAUGUAAAUUUUUCGUUUAACUUGAAUGUGUAGAAGGGCCAUUUU [Ex3 #59] (Eterna round: R97, puzzle: Exclusion 3) | 20.7 | 20.2 | – | –
23 | UUUUAUAGAGGAUAUGCGUGAAUAUAUAUUCAUGGAAAUUUACAUGAGGAUCACCCAUGUAGAAGGUUGUGUUU [LRO-Excl2-20-mod 090 by JR] (Eterna round: R97, puzzle: Exclusion 2) | 13.3 | 11.9 | – | –
24 | UUUUGAAAGUGAGGAUAUGACAUGAGGAUCACCCAUGUAAAGGGAGUUGACUAUAUAGCAAGAUAUCAGAAGGCACAAAUGUUU [JR_ExcNG2_Sub003] (Eterna round: R96, puzzle: Exclusion NG 2) | 367 | 645 | – | apparent KD of MS2 coat protein [1]: 341 nM
25 | UUUUGACAUGAGGAUCACCCAUGUGAGGAUAUGAUGCGAUCGUCGAAAGACGAUAGCAUCAGAAGGCACAUAUG [Fiskers Ex 1 - 9] (puzzle: Exclusion 1) | – | – | 125 | –
26 | UUUUGGCAAGCGAGAUCCGACAUGAGGAUCACCCAUGUGCGGGCCCGAAAAGGGCCCGCGGUUGCUCGUCUUGUGUG [free energy optimized] (Eterna round: R97, puzzle: Sensor, turn-off variant 1) | 15.7 | 16.9 | – | –
27 | UUUUUACGAGGAUAUCGUUUUUUUCACAUGAGGAUCACCCAUGUUGUUUAUGUUUCGUUGCGAGAAGGCGUUUGUU [JR_E5_Sub064] (puzzle: Exclusion 5) | – | – | 24.3 | –
28 | UUUUUACGAGGAUAUCGUUUUUUUCACAUGAGGAUCACCCAUGUUGUUUAUGUUUCGUUUCGAGAAGGCGUUUGUU [JR_E5_Sub065] (puzzle: Exclusion 5) | – | – | 26.1 | –
29 | UUUUUAGUGCUUUUUAAGUACAUGAGGAUCACCCAUGUACUUGUCUGGUGGUCCGGACAAGCUUUUUGCUCGUCUUG [Trying Again] (puzzle: Sensor v3, turn-off variant 1) | – | – | 35.9 | apparent KD of MS2 coat protein [3]: 41.4 nM; apparent KD of MS2 coat protein [4]: 48.2 nM
30 | UUUUUAUAUGAAGGAUAUACUUAACAUGAGGAUCACCCAUGUGGUGUUGUGAGUGAGUGAGUUUAGUAGAAGGUCAAUGAUUUU [JMF's solution 10] (Eterna round: R96, puzzle: Exclusion NG 2) | 730 | 345 | – | apparent KD of MS2 coat protein [1]: 326 nM
31 | UUUUUAUAUGAAGGAUAUACUUAACAUGAGGAUCACCCAUGUGGUGUUGUGAGUGAGUGAGUUUAGUAGAAGGUCAAUUAGUGU [JMF's solution 102] (Eterna round: R96, puzzle: Exclusion NG 2) | 998 | 476 | – | apparent KD of MS2 coat protein [1]: 314 nM
32 | UUUUUAUAUGAAGGAUAUACUUAACAUGAGGAUCACCCAUGUGGUGUUGUGAGUGAGUGAGUUUAGUAGAAGGUCAAUUCGUUU [JMF's solution 80] (Eterna round: R96, puzzle: Exclusion NG 2) | 823 | 356 | – | apparent KD of MS2 coat protein [1]: 294 nM
33 | UUUUUCAUCUAUGGGAGUGACAUGAGGAUCACCCAUGUGUGUCUUGUUUUUUGUUCGUCUAAGACUUUCUGAUCAGU [JR_SV3TOV1_Sub032] (puzzle: Sensor v3, turn-off variant 1) | – | – | 313 | apparent KD of MS2 coat protein [3]: 128 nM; apparent KD of MS2 coat protein [4]: 160 nM
34 | UUUUUCGAACAAGCUUCGAACAUGAGGAUCACCCAUGUAGGUAGAUUUGAGUAGGUUUGGAAGUAAGCUCGUCUUAU [JR_SV3TOV1_Sub081] (puzzle: Sensor v3, turn-off variant 1) | – | – | 561 | apparent KD of MS2 coat protein [3]: 416 nM; apparent KD of MS2 coat protein [4]: 592 nM
35 | UUUUUCGAACAAGCUUCGUACAUGAGGAUCACCCAUGUUUUUAGUUUUGUGUUGGUCAGUAUGGAAGUUCGUCUUAU [JR_SV3TOV1_Sub088] (puzzle: Sensor v3, turn-off variant 1) | – | – | 356 | apparent KD of MS2 coat protein [3]: 239 nM; apparent KD of MS2 coat protein [4]: 288 nM
36 | UUUUUGUCAGGAUAUGAGUAGUAGUACUAUUGUUUUAUUAUUUAGAAGGGACAUGAGGAUCACCCAUGUUUCUC [Bring Us a Shrubbery-01] (puzzle: Exclusion 4) | – | – | 14.4 | –
37 | UUUUUGUGAGGAUAUCAGUAGUAAAAAAAUAAAAUUACUACUGAGAAGGCACAUGAGGAUCACCCAUGUUCCUU [salish99_ex4_r3_011] (puzzle: Exclusion 4) | – | – | 14.5 | –
